From patent CN116640222A

Experiments:
[1] = target: DNP-BSA (UniProt P02769); assay: indirect ELISA, DNP-BSA coated 3 ug/ml, antibody at 7.813 ng/ml
[2] = target: DNP-BSA (UniProt P02769); assay: BLI, antibody captured on AMC sensor, DNP-BSA in solution
[3] = target: DNP-BSA (UniProt P02769); assay: indirect ELISA, DNP-BSA coated 3 ug/ml, antibody at 125 ng/ml
[4] = target: DNP-BSA (UniProt P02769); assay: indirect ELISA, DNP-BSA coated 3 ug/ml, antibody at 62.5 ng/ml
[5] = target: DNP-BSA (UniProt P02769); assay: indirect ELISA, DNP-BSA coated 3 ug/ml, antibody at 31.25 ng/ml
[6] = target: DNP-BSA (UniProt P02769); assay: indirect ELISA, DNP-BSA coated 3 ug/ml, antibody at 15.625 ng/ml
[7] = target: DNP-BSA (UniProt P02769); assay: indirect ELISA on DNP-BSA, antibody stored 21 days at -80 C, at 125 ng/ml
[8] = target: DNP-BSA (UniProt P02769); assay: indirect ELISA on DNP-BSA, antibody stored 21 days at -80 C, at 15.625 ng/ml
[9] = target: DNP-BSA (UniProt P02769); assay: indirect ELISA on DNP-BSA, antibody stored 21 days at 37 C, at 15.625 ng/ml
[10] = target: DNP-BSA (UniProt P02769); assay: indirect ELISA on DNP-BSA, antibody stored 21 days at 4 C, at 125 ng/ml
[11] = target: DNP-BSA (UniProt P02769); assay: indirect ELISA on DNP-BSA, antibody stored 21 days at 37 C, at 125 ng/ml
[12] = target: DNP-BSA (UniProt P02769); assay: indirect ELISA on DNP-BSA, antibody stored 21 days at 4 C, at 15.625 ng/ml

UniProt P02769, sequence (P02769 25-607 limits assumed, form in doubt): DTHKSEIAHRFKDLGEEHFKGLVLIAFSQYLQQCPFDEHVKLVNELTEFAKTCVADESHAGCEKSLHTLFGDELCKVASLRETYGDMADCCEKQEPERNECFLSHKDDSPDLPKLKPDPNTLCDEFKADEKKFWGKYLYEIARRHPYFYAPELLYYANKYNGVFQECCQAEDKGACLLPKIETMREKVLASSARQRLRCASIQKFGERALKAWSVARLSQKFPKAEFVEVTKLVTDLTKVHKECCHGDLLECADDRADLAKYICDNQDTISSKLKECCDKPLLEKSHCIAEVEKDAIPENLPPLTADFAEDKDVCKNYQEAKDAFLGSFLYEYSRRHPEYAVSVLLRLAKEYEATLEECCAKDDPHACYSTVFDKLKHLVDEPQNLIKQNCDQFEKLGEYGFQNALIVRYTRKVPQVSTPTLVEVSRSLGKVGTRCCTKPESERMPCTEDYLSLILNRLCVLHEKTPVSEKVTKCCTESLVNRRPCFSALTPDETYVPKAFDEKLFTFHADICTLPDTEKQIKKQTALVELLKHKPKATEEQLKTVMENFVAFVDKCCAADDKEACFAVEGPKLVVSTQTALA

| Molecule | OD (450 nm, ref 630 nm) [1] [OD] | Kd [2] [nM] | koff [2] [s⁻¹] | kon [2] [M⁻¹ s⁻¹] | OD (450 nm, ref 630 nm) [3] [OD] | OD (450 nm, ref 630 nm) [4] [OD] | OD (450 nm, ref 630 nm) [5] [OD] | OD (450 nm, ref 630 nm) [6] [OD] | OD (450 nm, ref 630 nm) [7] [OD] | OD (450 nm, ref 630 nm) [8] [OD] | OD (450 nm, ref 630 nm) [9] [OD] | OD (450 nm, ref 630 nm) [10] [OD] | OD (450 nm, ref 630 nm) [11] [OD] | OD (450 nm, ref 630 nm) [12] [OD] |
| --- | --- | --- | --- | --- | --- | --- | --- | --- | --- | --- | --- | --- | --- | --- |
| 对照 (antibody) | 0.229 | 2.57 | 0.00055 | 214000 | 2.37 | 1.53 | 0.949 | 0.375 | – | – | – | – | – | – |
| Anti-DNP-6G1mut2 (antibody, mouse IgG1, V domains shown) VH: EVQLQESGPSLVKPSQTLSLTCSVTGDSIITGYWNWIRKFPGNKLEFMGYISYSGRTYYNPSLKSRVSITRDTSKNQYYLQLSSVTTEDAATYYCTRWTTAYFGIDSWGQGISVTVSS VL: QAVVTQESALTTSPGGTVILTCRSSTGAVTTSNNANWVQEKPDHLFTGLIGGTSNRAPGVPVRFSGSLIGDKAALTITGAQTEDDAMYFCALWYSTHYVFGGGTKVTVLG | 0.516 | 0.287 | 0.00039 | 1.36e+06 | 2.28 | 2.17 | 1.61 | 0.987 | – | – | – | – | – | – |
| Anti-DNP-6G1mut1 (antibody, mouse IgG1, V domains shown) VH: EVQLQESGPSLVKPSQTLSLTCSVTGDSIITGYWNWIRKFPGNKLEFMGYISYSGRTYYNPSLKSRVSITRDTSKNQYYLQLSSVTTEDAATYYCTRWTTAYFGIDSWGQGISVTVSS VL: QAVVTQESALTTSPGGTVILTCRSSTGAVTTSNNANWVQEKPDHLFTGLIGGTSNRAPGVPVRFSGSLIGDKAALTITGAQTEDDAMYFCAIWYSTHYVFGGGTKVTVLG | 0.504 | 0.168 | 0.00042 | 2.5e+06 | 2.25 | 1.95 | 1.69 | 0.96 | 2.24 | 0.977 | 0.985 | 2.21 | 2.26 | 0.991 |
